# From publication doi:10.1101/2024.06.12.598358 (bioRxiv, 2024)
# Read-outs that look alike come from different tables or passages of the source. Side chains are listed from the residue outwards. Ends that are not written are not given here. maleimide = maleimide function on the C-terminal Lys
# T1: E. coli ClpS (E. coli, UniProt P0A8Q6 1-106)
# T1 sequence: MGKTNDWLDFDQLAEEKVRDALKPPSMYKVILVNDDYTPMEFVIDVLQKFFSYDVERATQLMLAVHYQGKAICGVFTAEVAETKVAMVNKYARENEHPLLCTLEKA
# Columns and labels:
# [1] = molecular target: 7xHis-SUMO-MtbClpC1 (M. tuberculosis) (UniProt P9WPC9); test: MST
# 7xHis-SUMO-MtbClpC1 (M. tuberculosis), sequence (P9WPC9 whole entry): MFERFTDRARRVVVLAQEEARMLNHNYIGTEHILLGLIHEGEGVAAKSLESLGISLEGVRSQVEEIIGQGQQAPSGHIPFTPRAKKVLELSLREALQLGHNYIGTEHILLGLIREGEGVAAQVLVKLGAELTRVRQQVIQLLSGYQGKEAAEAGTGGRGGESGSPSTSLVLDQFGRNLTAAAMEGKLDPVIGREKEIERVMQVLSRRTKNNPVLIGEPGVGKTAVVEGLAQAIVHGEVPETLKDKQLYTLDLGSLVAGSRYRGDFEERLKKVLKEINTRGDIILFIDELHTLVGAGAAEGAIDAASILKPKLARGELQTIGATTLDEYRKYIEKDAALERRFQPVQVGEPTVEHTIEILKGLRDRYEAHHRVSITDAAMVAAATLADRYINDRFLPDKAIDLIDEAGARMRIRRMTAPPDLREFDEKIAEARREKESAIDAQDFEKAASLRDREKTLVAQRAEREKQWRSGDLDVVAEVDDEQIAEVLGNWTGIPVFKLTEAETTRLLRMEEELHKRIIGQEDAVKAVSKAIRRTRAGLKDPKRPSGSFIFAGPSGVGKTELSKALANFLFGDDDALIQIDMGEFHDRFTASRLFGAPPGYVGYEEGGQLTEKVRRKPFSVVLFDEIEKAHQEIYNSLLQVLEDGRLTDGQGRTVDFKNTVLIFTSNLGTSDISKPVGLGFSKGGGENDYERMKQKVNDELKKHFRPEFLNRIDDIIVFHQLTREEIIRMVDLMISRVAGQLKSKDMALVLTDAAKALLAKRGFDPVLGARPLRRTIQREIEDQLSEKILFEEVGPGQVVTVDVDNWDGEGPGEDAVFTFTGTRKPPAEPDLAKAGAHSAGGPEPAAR
# [2] = molecular target: 7xHis-SUMO-MtbClpC1 (M. tuberculosis) (UniProt P9WPC9); test: MST; remark: listed apart in the source
# [3] = molecular target: Tyr-LFVQLASK peptide conjugated to CSGSK^TAMRA; test: fluorescence polarisation
# [4] = molecular target: Phe-LFVQLASK peptide conjugated to CSGSK^TAMRA; test: fluorescence polarisation
# [5] = molecular target: Leu-LFVQLASK peptide conjugated to CSGSK^TAMRA; test: fluorescence polarisation
# [6] = molecular target: Trp-LFVQLASK peptide conjugated to CSGSK^TAMRA; test: fluorescence polarisation
# E. coli ClpS = molecular target: T1, E. coli ClpS; test: fluorescence polarisation
molecule,measurement,setting,value
M. smegmatis ClpS (natural protein),Kd,[1],3.5 µM
same,Kd,[2],100 µM
same,Kd,[3],8.8 µM
same,Kd,[4],6.5 µM
same,Kd,[5],42 µM
same,Kd,[6],11 µM
LLFVQLASK([maleimide-CSGSK(TAMRA)]) (not fully specified) [Leu-LFVQLASK peptide conjugated to CSGSK^TAMRA],binding result,E. coli ClpS,binds
YLFVQLASK([maleimide-CSGSK(TAMRA)]) (not fully specified) [Tyr-LFVQLASK peptide conjugated to CSGSK^TAMRA],binding result,E. coli ClpS,binds
FLFVQLASK([maleimide-CSGSK(TAMRA)]) (not fully specified) [Phe-LFVQLASK peptide conjugated to CSGSK^TAMRA],binding result,E. coli ClpS,binds
WLFVQLASK([maleimide-CSGSK(TAMRA)]) (not fully specified) [Trp-LFVQLASK peptide conjugated to CSGSK^TAMRA],binding result,E. coli ClpS,binds
